In experiment [1] the test system is COLO 205 colon cancer cells. Nature of the experiment: Cytotoxicity of anti-EpCAM antibodies in combination with oxaliplatin in COLO 205. It is filed as cell-based, human. The following applies: No mAb added, 24 hr. As for the experimental part: Oxaliplatin, combined with infusional administration of 2 other chemotherapy drugs, 5-fluorouracil/leucovorin (5-FU/LV), is now considered as one of the as first-line treatments for people with advanced carcinoma of the colon or rectum (André et al. (2004) N Engl J Med 350(23):2343-2351). To test the cytotoxicity of anti-EpCAM antibodies in the presence of oxaliplatin, 1×10^5 COLO 205 cells were seeded to each well of a 96-well plate, and then 0.03, 0.3 and 3 μg/ml of anti-EpCAM or control (9E10) mAbs in combination with oxaliplatin at concentration of 0, 0.01, 0.1, and 1 μg/ml diluted in the medium were added into the cells. After a 24-hr incubation at 37° C., the cells were stained with 0.3 μl of FITC-conjugated Annexin V (Strong Biotech Corp. Cat. No. AVK250) in 50 μl Annexin V binding buffer (Strong Biotech Corp. Cat. No. AVK250) at RT for 20 min. After wash, the cells were then stained with 0.3 μl of propidium iodide in 200 μl Annexin V binding buffer. Annexin V and Propidium Iodide were used as a joint indicator for measuring cell death. The data were acquired with BD FACSCalibur based on an acquisition of 3,000-5,000 cells and analyzed with the Cell Quest software. The combined percentages of the Annexin V+/PI+, Annexin V+/PI− and Annexin V−/PI+populations were considered as dead cells.

The target of experiment [2] is T1, EGFI-Cr1 V40E (human).
T1 construct: not shown: The fused constant region of human immunoglobulin gamma 1 heavy chain (Cr1)
T1 chain: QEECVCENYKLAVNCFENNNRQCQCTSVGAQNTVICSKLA
Put plainly: direct ELISA, coated EGFI-Cr1 fusion, 0.1 µg/ml antibody. The method, then:
(§1) A direct ELISA was used for testing the reactivity of anti-EpCAM antibodies toward variant EpCAM mutants. Briefly, purified EpCAM EGF-1 fusion proteins (WT, Q24A, E25K, E26D, A35T, N37R, F39A, V40E, N41A, N42E, N43A, R44G, Q45A, Q47A or T49A) and irrelevant control (CEA-Cr1) were pre-diluted to 0.5 μg/ml in coating buffer (8.4 g NaHCO₃, 3.4 g Na₂CO₃ in 1 L H₂O, pH 9.5) and aliquoted (100 μl/well) into 96-well plates. […] Plates were then washed 3 times with PBST followed by the addition of the enzyme substrate TMB (BD Biosciences, Cat. No. 555214). […] The optical densities at 450 nm wavelength were measured on an ELISA plate reader.
In general terms: ELISA stands for enzyme-linked immunosorbent assay.

For experiment [3], the target named is T2, EGFI-Cr1 N42E (human, UniProt P16422 24-63).
T2 construct: not shown: the constant region of human immunoglobulin gamma 1 heavy chain (Cr1) fused at the C-terminus
T2 chain: T1 chain with E17V, N19E
The experiment is described as above. The method, then: as §1

In experiment [4] the target is T3, EGFI-Cr1 N43A (human, UniProt P16422 24-63).
T3 construct: not shown: the constant region of human immunoglobulin gamma 1 heavy chain (Cr1) fused at the C-terminus
T3 chain: T1 chain with E17V, N20A
The description is as above. The method, then: as §1

The target in experiment [5] is T4, EGFI-Cr1 N37R (human).
T4 construct: not shown: The fused constant region of human immunoglobulin gamma 1 heavy chain (Cr1)
T4 chain: T1 chain with N14R, E17V
The description is as above. As for the experimental part: as §1

Experiment [6] deals with T5, EGFI-Cr1 A35T (human, UniProt P16422 24-63).
T5 construct: not shown: The fused constant region of human immunoglobulin gamma 1 heavy chain (Cr1)
T5 chain: T1 chain with A12T, E17V
The description is as above. As for the experimental part: as §1

The target of experiment [7] is T6, EGFI-Cr1 T49A (human, UniProt P16422 24-63).
T6 construct: not shown: the constant region of human immunoglobulin gamma 1 heavy chain (Cr1) fused at the C-terminus
T6 chain: T1 chain with E17V, T26A
The experiment is described as above. As for the experimental part: as §1

Experiment [8] concerns the target T7, EGFI-Cr1 Q24A (human, UniProt P16422 25-63).
T7 construct: not shown: The fused constant region of human immunoglobulin gamma 1 heavy chain (Cr1)
T7 chain: T1 chain with Q1A, E17V
The description is as above. As for the experimental part:
as §1

Experiment [9] addresses T8, EGFI-Cr1 F39A (human, UniProt P16422 24-63).
T8 construct: not shown: The fused constant region of human immunoglobulin gamma 1 heavy chain (Cr1)
T8 chain: T1 chain with F16A, E17V
Described as above. As for the experimental part: as §1

The target in experiment [10] is T9, EGFI-Cr1 R44G (human, UniProt P16422 24-63).
T9 construct: not shown: the constant region of human immunoglobulin gamma 1 heavy chain (Cr1) fused at the C-terminus
T9 chain: T1 chain with E17V, R21G
The description is as above. As for the experimental part: as §1

In experiment [11] the target is T10, EGFI-Cr1 wild type (first EGF-like repeat of human EpCAM fused to the constant region of human immunoglobulin … (human, UniProt P01857-1 99-330 = IgG part)).
T10 construct: cDNA covered aa 1-63; Expressed in COS-7 cells; also called WT; EpCAM EGF-1 fusion protein WT
The description is as above. As for the experimental part:
as §1

The target of experiment [12] is T11, EGFI-Cr1 E25K (human, UniProt P16422 24-63).
T11 construct: not shown: The fused constant region of human immunoglobulin gamma 1 heavy chain (Cr1)
T11 chain: T1 chain with E2K, E17V
The description is as above. The method, then:
as §1

The target of experiment [13] is T12, EGFI-Cr1 E26D (human, UniProt P16422 24-63).
T12 construct: not shown: The fused constant region of human immunoglobulin gamma 1 heavy chain (Cr1)
T12 chain: T1 chain with E3D, E17V
Described as above. As for the experimental part: as §1

Experiment [14] has as its target T13, EGFI-Cr1 Q47A (human, UniProt P16422 24-63).
T13 construct: not shown: the constant region of human immunoglobulin gamma 1 heavy chain (Cr1) fused at the C-terminus
T13 chain: T1 chain with E17V, Q24A
Described as above. The method, then:
as §1

Experiment [15] addresses T14, EGFI-Cr1 N41A (human, UniProt P16422 24-63).
T14 construct: not shown: The fused constant region of human immunoglobulin gamma 1 heavy chain (Cr1)
T14 chain: T1 chain with E17V, N18A
The experiment is described as above. As for the experimental part: as §1

The target in experiment [16] is T15, EGFI-Cr1 Q45A (human, UniProt P16422 24-63).
T15 construct: not shown: the constant region of human immunoglobulin gamma 1 heavy chain (Cr1) fused at the C-terminus
T15 chain: T1 chain with E17V, Q22A
The experiment is described as above. The method, then: as §1

Where a chain is given by its changes, count along the chain named.

Regarding `O=C1[O][Pt]2([NH][C@@H]3CCCC[C@H]3[NH]2)[O]C1=O` [Oxaliplatin, reference compound], the “% of Annexin V + PI staining (untreated background subtracted)” value in experiment [1] (oxaliplatin 0.01 μg/ml) is 1%; in [1] (oxaliplatin 0.1 μg/ml), 1%; in experiment [1] (oxaliplatin 1 μg/ml), 2%.

B1: murine monoclonal antibody 1F10 (antibody, mouse IgG1, V domains shown)
VH: EVKLLESGGGLVQPGGSLKLSCAASGFDFSRYWMSWVRQAPGKGLEWIGEINPDSSTMNYTPSLKDKFIISRDNAKNTLYLQMSKVRSEDTALYYCARGAYAMDYWGQGTSVTVSS
VL: QAVVTQESALTTSPGETVTLTCRSSTGAVTTSNNANWVQEKPDHLFTGLIGATNNRAPGVPARFSGSLIGDKAALTITGAQTEDEAIYFCALWYINHWVFGGGTKLTVLG
notes: Mouse IgG1, lambda 1, from hybridoma; also called m338-1F10.3
B1: the “relative binding activity (% of WT)” value is 1% in [2]; 95% in experiment [3]; 100% in [4]; 97% in experiment [5]; 93% in [6]; 94% in [7]. Besides, the “relative binding activity (% of WT)” value in experiment [8] was 93%; in experiment [9], 81%; in experiment [10], 1%; in experiment [11] it was 100%; in experiment [12], 10%; in experiment [13], 98%. Besides, the entries for the “relative binding activity (% of WT)” value in [14], in experiment [15] and in experiment [16] were 92%, 63% and 84%, respectively.

B2: murine monoclonal antibody 1G10 (antibody, mouse IgG1, V domains shown)
VH: QIQLVQSGPELKKPGETVKISCKASGYTFTNYGMNWVKQAPGKGFKWMGWINTYTGEPTYADDFKGRFAFSLETSASTAYLQINNLQNEDMATYFCARWGYDFDYWGQGTTLTVSS
VL: QIVLTQSPAIMSSSPGEKVTMTCSASSSISYMNWYQQKPGTSPKRWIYDTSKLASGVPARFSGSGSGTSYSLTISSMEAEDAATYYCHQRSSYPYTFGGGTKLEIKR
notes: Mouse IgG1, kappa, from hybridoma; also called m290-1G10
Take B2: the “relative binding activity (% of WT)” value in experiment [2] was 71%; in experiment [3], 93%; in experiment [4] it was 96%; in experiment [5], 1%; in experiment [6], 89%; in experiment [7] it was 17%. For the same molecule, the “relative binding activity (% of WT)” value in [8] is 44%; in experiment [9] it was 78%; in [10], 95%; in experiment [11], 100%; in [12] it was 3%; in experiment [13] it was 1%. Also, the “relative binding activity (% of WT)” value came to 49% in [14], 23% in [15] and 80% in [16].

Values taken from US20110165161A1, “ANTI-EPCAM ANTIBODIES THAT INDUCE APOPTOSIS OF CANCER CELLS AND METHODS USING SAME” (priority 2009, published 2011).
